Experimental data taken from patent publication US11813311B2, “Treatment and prevention of metabolic diseases” (Singapore Health Services PTE LTD., priority 2019, dated 2023).
Entries after “also recorded” stand apart in the source; their conditions may differ.

Assays:
HSCs = experiment: IL-11 expression and secretion by HSCs (RNA-seq, ELISA); type: cell-based, human; conditions: for IL-11 secretion from HSCs: ELISA
Source text: TGFβ1 stimulation of human hepatic stellate cells and antibody treatment in HFMCD: Sequenced libraries were demultiplexed using bcl2fastq v2.19.0.316 with the-no-lane-splitting option. Adapter sequences were then trimmed using trimmomatic^6 v0.36 in paired end mode with the options MAXINFO:35:0.5 MINLEN:35. Trimmed reads were aligned to the Homo sapiens GRCh38 using STAR′ v. 2.2.1 with the options—outFilterType BySJout-outFilterMultimapNmax 20-alignSJoverhangMin 8-alignSJDBoverhangMin 1-outFilterMismatchNmax 999-alignIntronMin 20-alignIntronMax 1000000-alignMatesGapMax 1000000 in paired end, single pass mode. Only unique alignments were retained for counting. Counts were calculated at the gene level using the FeatureCounts module from subread^8v. 1.5.1, with the options -O-s 2-J-T 8-p-R-G. The Ensembl release 86 hg38 GTF was used as annotation to prepare STAR indexes and for FeatureCounts.
The levels of IL-11 and MMP-2 in equal volumes of cell culture media were quantified using Human IL-11 Quantikine ELISA kit (D1100, R&D Systems) and Total MMP-2 Quantikine ELISA kit (MMP200, R&D Systems), respectively. Total secreted collagen in the cell culture supernatant was quantified using Sirius red collagen detection kit (9062, Chondrex). Total hydroxyproline content in the livers was measured using Quickzyme Total Collagen assay kit (Quickzyme Biosciences). Mouse serum levels of alanine aminotransferease (ALT), cholesterol, and triglycerides were measured using Alanine Transaminase Activity Assay Kit (ab105134, abcam), Cholesterol Assay Kit (ab65390, abcam), and Triglyceride Assay Kit (ab65336, abcam), respectively. Liver Triglycerides (TG) measurements were performed using triglyceride colorimetric assay kit (Ser. No. 10/010,303, Cayman). All ELISA and colorimetric assays were performed according to the manufacturer's protocol.

[1] = test system: primary human hepatocytes; experiment: Stimulation of primary human hepatocytes with IL11, hyperIL11, hyperIL6; type: cell-based; conditions: for ERK and JNK (non-canonical signaling) activation: 2.5 ng/ml to 20 ng/ml
Method: Human hepatocytes (5200, ScienCell) were grown and maintained in hepatocyte media (5201, ScienCell) supplemented with 2% fetal bovine serum (FBS) and 1% Penicillin-streptomycin.
Primary human hepatocytes (5200, ScienCell) were maintained in hepatocyte medium ([…], ScienCell) supplemented with 2% fetal bovine serum, 1% Penicillin-streptomycin at 37° C. and 5% CO2. Hepatocytes (P2-P3) were serum-starved overnight unless otherwise specified in the methods prior to 24 hours stimulation with different doses of various recombinant proteins as described.
For surface IL11RA, IL6R, and gp130 analysis, primary human hepatocytes and THP-1 cells were stained with IL11RA, IL6R, or gp130 antibody and the corresponding Alexa Fluor 488 secondary antibody. Cell death analysis was performed by staining primary human hepatocytes with Dead Cell Apoptosis Kit with Annexin V FITC and PI (V13242, Thermo Fisher). PI+ve cells were then quantified with the flow cytometer (Fortessa, BD Biosciences) and analyzed with FlowJo version X software (TreeStar).
Alanine Aminotransferase (ALT) activity in the cell culture supernatant and mouse serum was measured using ALT Activity Assay Kit (ab105134, Abcam). Liver Glutathione (GSH) levels were measured using Glutathione Colorimetric Detection Kit (EIAGSHC, Thermo Fisher). Total hydroxyproline content in mouse livers was measured using Quickzyme Total Collagen assay kit (QZBtotco15, Quickzyme Biosciences). The levels of serum and liver triglycerides were measured using Triglyceride Assay Kit (ab65336, Abcam). Mouse serum levels of Aspartate Aminotransferase (AST) and cholesterol were measured using AST Assay Kit (ab105135, Abcam) and Cholesterol Assay Kit (ab65390; Abcam), respectively. All colorimetric assays were performed according to the manufacturer's protocol.
(§1) Western blots were carried out on total protein extracts from hepatocytes and liver tissues. Hepatocyte and liver tissue lysates were homogenized in RIPA Lysis and Extraction Buffer (89901, Thermo Scientific) containing protease and phosphatase inhibitors (Roche). Protein lysates were separated by SDS-PAGE and transferred to PVDF membranes. Protein bands were visualized using the ECL detection system (Pierce) with the appropriate secondary antibodies: anti-rabbit HRP or anti-mouse HRP.

[2] = test system: primary human hepatocytes; experiment: Palmitate loading (lipotoxicity) of primary human hepatocytes; type: cell-based; conditions: palmitate:BSA 6:1
Method: Palmitate:BSA conjugated solution in the ratio of 6:1 was prepared as described earlier (Alsabeeh et al., 2018). Palmitate (0.5 mM) conjugated in fatty acids free BSA was used to treated cells as described in figure legends; 0.5% BSA solution was used as control. […]
Primary human hepatocytes were seeded on 8-well chamber slides (1×10^4 cells/well). For this experiment, cells were not serum-starved prior to palmitate treatment. 24 hours following palmitate stimulation, cells were washed, incubated with 25 μM of DCFDA solution (ab113851, Abcam) for 45 minutes at 37° C. in the dark, and rinsed with dilution buffer according to the manufacturer's protocol. Live cells with positive DCF staining were imaged with filter set appropriate for fluorescein (FITC) using a fluorescence microscope (Leica). […]
as §1

[3] = test system: wild-type C57BL/6J and Col1a1-GFP reporter mice; experiment: Daily subcutaneous injection of recombinant mouse IL-11; type: in vivo
Method: Recombinant mouse IL-11 (rmIL11) was reconstituted to a concentration of 50 μg ml^−1 in saline. Ten-week-old male wild-type C57BL/6J mice received daily subcutaneous injection of either 100 μg kg^−1 of rmIL11 in saline (n=19) or an identical volume of saline (n=15) for 21 days.
Ten week old male Col1a1-GFP reporter mice 19 and wild-type C57BL/6J mice received daily subcutaneous injection of either 100 μg/kg of recombinant mouse Il-11 (rmIl-11) or identical volume of saline for 21 days.

## PDGF
HSCs
  IL-11 secretion from HSCs: induce IL-11 secretion

## CCL2: human CCL2 recombinant protein, NASH stimulus
HSCs
  IL-11 secretion from HSCs: induce IL-11 secretion

## TGFβ1: human TGFβ1 recombinant protein, pro-fibrotic stimulus [reference compound]
HSCs; TGFβ1 5 ng/ml, 24 h
  IL-11 upregulation in HSCs (RNA-seq): 14.9 fold
[1]; TGFβ1 5 ng/ml, 24 h
  IL-11 secretion from hepatocytes: robustly secreted IL-11

## hyperIL6: IL6R:IL6 fusion protein, synthetic IL6 trans-signaling construct (R&D systems) [reference compound]
[1]; 24 h
  ERK and JNK (non-canonical signaling) activation: did not activate
[1]; 20 ng/ml
  ALT in the media, fold change (FC): 0.9
[1]; dose range, 24 h
  STAT3 activation: dose-dependently induced STAT3 activation

## angiotensin II: human angiotensin (Sigma-Aldrich), NASH stimulus (DRVYIHPF; Angiotensin-2; UniProt P01019 25-32, looked up)
HSCs
  IL-11 secretion from HSCs: induce IL-11 secretion

## bFGF: human bFGF recombinant protein, NASH stimulus
HSCs
  IL-11 secretion from HSCs: induce IL-11 secretion

## CCCCCCCCCCCCCCCC(=O)O [palmitate, Palmitate, reference compound]
[2]
  IL11 secretion, FC vs control: 28

B1: sIL11RA: soluble IL11RA, human IL11RA (R&D systems), to potentiate putative trans-signaling (protein, UniProt Q14626 24-370, looked up)
extracellular domain: SPCPQAWGPPGVQYGQPGRSVKLCCPGVTAGDPVSWFRDGEPKLLQGPDSGLGHELVLAQADSTDEGTYICQTLDGALGGTVTLQLGYPPARPVVSCQAADYENFSCTWSPSQISGLPTRYLTSYRKKTVLGADSQRRSPSTGPWPCPQDPLGAARCVVHGAEFWSQYRINVTEVNPLGASTRLLDVSLQSILRPDPPQGLRVESVPGYPRRLRASWTYPASWPCQPHFLLKFRLQYRPAQHPAWSTVEPAGLEEVITDAVAGLPHAVRVSARDFLDAGTWSTWSPEAWGTPSTGTIPKEIPAWGQLHTQPEVEPQVDSPAPPRPSLQPHPRLLDHRDSVEQVAVLA
modifications: extracellular domain
[1]; IL11 20 ng/ml, sgp130 or sIL11RA 1 μg/ml
  IL11-induced hepatocyte death and signaling: unaffected
[1]; increasing doses of sgp130 or sIL11RA
  ALT release from IL11-stimulated hepatocytes: no effect
[1]; sgp130 or sIL11RA 1 μg/ml
  IL11 dose-dependent hepatocyte cell death on addition of decoy: unaffected

B2: rmIL11: Recombinant mouse IL-11 (UniProtKB: P47873) (protein)
chain: PGPPAGSPRVSSDPRADLDSAVLLTRSLLADTRQLAAQMRDKFPADGDHSLDSLPTLAMSAGTLGSLQLPGVLTRLRVDLMSYLRHVQWLRRAGGPSLKTLEPELGALQARLERLLRRLQLLMSRLALPQAAPDQPVIPLGPPASAWGSIRAAHAILGGLHLTLDWAVRGLLLLKTRL
[3]; 100 μg/kg daily s.c., 21 days
  expression of key pro-fibrotic and pro-inflammatory genes: increased
  hepatic collagen content: increased
  serum alanine aminotransferase (ALT): increased
[3]; 100 μg/kg daily s.c., 21 days, vs saline
  weight gain: slowed normal mouse weight gain progression; also recorded: gained less weight
[3]; Col1a1-GFP reporter mice
  Col1a1+ve myofibroblasts in the liver: accumulated GFP-expressing Col1a1^+ve myofibroblasts in the liver

B3: hyperIL11: IL11RA:IL11 fusion protein mimicking the trans-signalling complex, SEQ ID NO:21 (protein)
chain: MSSSCSGLSRVLVAVATALVSASSPCPQAWGPPGVQYGQPGRSVKLCCPGVTAGDPVSWFRDGEPKLLQGPDSGLGHELVLAQADSTDEGTYICQTLDGALGGTVTLQLGYPPARPVVSCQAADYENFSCTWSPSQISGLPTRYLTSYRKKTVLGADSQRRSPSTGPWPCPQDPLGAARCVVHGAEFWSQYRINVTEVNPLGASTRLLDVSLQSILRPDPPQGLRVESVPGYPRRLRASWTYPASWPCQPHFLLKFRLQYRPAQHPAWSTVEPAGLEEVITDAVAGLPHAVRVSARDFLDAGTWSTWSPEAWGTPSTGPAGQSGGGGGSGGGSGGGSVPGPPPGPPRVSPDPRAELDSTVLLTRSLLADTRQLAAQLRDKFPADGDHNLDSLPTLAMSAGALGALQLPGVLTRLRADLLSYLRHVQWLRRAGGSSLKTLEPELGTLQARLDRLLRRLQLLMSRLALPQPPPDPPAPPLAPPSSAWGGIRAAHAILGGLHLTLDWAVRGLLLLKTRL
modifications: Hyper IL-11 (IL-11RAIL-11 fusion)
HSCs
  IL-11 secretion from HSCs: secreted IL-11
[1]; 24 h
  ERK and JNK (non-canonical signaling) activation: activated ERK and JNK in a dose-dependent manner
[1]; dose range, 24 h
  alanine transaminase (ALT) in the media: dose-dependent increase
